To fix the notation:
B1: L3.PY/L1.PH/H2.HA (antibody, V domains shown)
VH: EVQLLESGGGLVQPGGSLRLSCAASGFTFGSYAMTWVRQAPGKGLEWVSAISHAGGNTFYADSVKGRFTISRDNSKNTLYLQMNSLRAEDTAVYYCARVSPIASGMDYWGQGTLVTVSS
VL: EIVLTQSPGTLSLSPGERATLSCRASQSVSPHYLAWYQQKPGQAPRLLIYGASSRATGIPDRFSGSGSGTDFTLTISRLEPEDFAVYYCQHYPYPPSFTFGQGTKVEIK
notes: IgG
B2: L3.PY/L1.PH/H2.QR (antibody, V domains shown)
VH: EVQLLESGGGLVQPGGSLRLSCAASGFTFGSYAMTWVRQAPGKGLEWVSAISGSGGNTFYADQRKGRFTISRDNSKNTLYLQMNSLRAEDTAVYYCARVSPIASGMDYWGQGTLVTVSS
VL: EIVLTQSPGTLSLSPGERATLSCRASQSVSPHYLAWYQQKPGQAPRLLIYGASSRATGIPDRFSGSGSGTDFTLTISRLEPEDFAVYYCQHYPYPPSFTFGQGTKVEIK
notes: IgG
B3: L3.PY/L1.PH/H3.AQ (antibody, V domains shown)
VH: EVQLLESGGGLVQPGGSLRLSCAASGFTFGSYAMTWVRQAPGKGLEWVSAISGSGGNTFYADSVKGRFTISRDNSKNTLYLQMNSLRAEDTAVYYCARVSPIAAQMDYWGQGTLVTVSS
VL: EIVLTQSPGTLSLSPGERATLSCRASQSVSPHYLAWYQQKPGQAPRLLIYGASSRATGIPDRFSGSGSGTDFTLTISRLEPEDFAVYYCQHYPYPPSFTFGQGTKVEIK
notes: IgG
B4: L3.PY/L3.KF/H2.QL (antibody, V domains shown)
VH: EVQLLESGGGLVQPGGSLRLSCAASGFTFGSYAMTWVRQAPGKGLEWVSAISGSGGNTFYADQLKGRFTISRDNSKNTLYLQMNSLRAEDTAVYYCARVSPIASGMDYWGQGTLVTVSS
VL: EIVLTQSPGTLSLSPGERATLSCRASQSVSSSYLAWYQQKPGQAPRLLIYGASSRATGIPDRFSGSGSGTDFTLTISRLEPEDFAVYYCKFYPYPPSFTFGQGTKVEIK
notes: IgG
B5: L3.PY/L3.KF/H2.DY (antibody, V domains shown)
VH: EVQLLESGGGLVQPGGSLRLSCAASGFTFGSYAMTWVRQAPGKGLEWVSAIDYSGGNTFYADSVKGRFTISRDNSKNTLYLQMNSLRAEDTAVYYCARVSPIASGMDYWGQGTLVTVSS
VL: EIVLTQSPGTLSLSPGERATLSCRASQSVSSSYLAWYQQKPGQAPRLLIYGASSRATGIPDRFSGSGSGTDFTLTISRLEPEDFAVYYCKFYPYPPSFTFGQGTKVEIK
notes: IgG
B6: L3.PY/L1.PH/H3.TAQ (antibody, V domains shown)
VH: EVQLLESGGGLVQPGGSLRLSCAASGFTFGSYAMTWVRQAPGKGLEWVSAISGSGGNTFYADSVKGRFTISRDNSKNTLYLQMNSLRAEDTAVYYCTRVSPIAAQMDYWGQGTLVTVSS
VL: EIVLTQSPGTLSLSPGERATLSCRASQSVSPHYLAWYQQKPGQAPRLLIYGASSRATGIPDRFSGSGSGTDFTLTISRLEPEDFAVYYCQHYPYPPSFTFGQGTKVEIK
notes: IgG
B7: L3.PY/L3.KF/H3.AQ (antibody, V domains shown)
VH: EVQLLESGGGLVQPGGSLRLSCAASGFTFGSYAMTWVRQAPGKGLEWVSAISGSGGNTFYADSVKGRFTISRDNSKNTLYLQMNSLRAEDTAVYYCARVSPIAAQMDYWGQGTLVTVSS
VL: EIVLTQSPGTLSLSPGERATLSCRASQSVSSSYLAWYQQKPGQAPRLLIYGASSRATGIPDRFSGSGSGTDFTLTISRLEPEDFAVYYCKFYPYPPSFTFGQGTKVEIK
notes: IgG
B8: L3.PY/L1.PH/H3.AE (antibody, V domains shown)
VH: EVQLLESGGGLVQPGGSLRLSCAASGFTFGSYAMTWVRQAPGKGLEWVSAISGSGGNTFYADSVKGRFTISRDNSKNTLYLQMNSLRAEDTAVYYCARVSPIAAEMDYWGQGTLVTVSS
VL: EIVLTQSPGTLSLSPGERATLSCRASQSVSPHYLAWYQQKPGQAPRLLIYGASSRATGIPDRFSGSGSGTDFTLTISRLEPEDFAVYYCQHYPYPPSFTFGQGTKVEIK
notes: IgG
B9: L3.PY/L3.KF/H3.YA (antibody, V domains shown)
VH: EVQLLESGGGLVQPGGSLRLSCAASGFTFGSYAMTWVRQAPGKGLEWVSAISGSGGNTFYADSVKGRFTISRDNSKNTLYLQMNSLRAEDTAVYYCARVSPIYAGMDYWGQGTLVTVSS
VL: EIVLTQSPGTLSLSPGERATLSCRASQSVSSSYLAWYQQKPGQAPRLLIYGASSRATGIPDRFSGSGSGTDFTLTISRLEPEDFAVYYCKFYPYPPSFTFGQGTKVEIK
notes: IgG
B10: L3.PY/L3.KF/H3.TAQ (antibody, V domains shown)
VH: EVQLLESGGGLVQPGGSLRLSCAASGFTFGSYAMTWVRQAPGKGLEWVSAISGSGGNTFYADSVKGRFTISRDNSKNTLYLQMNSLRAEDTAVYYCTRVSPIAAQMDYWGQGTLVTVSS
VL: EIVLTQSPGTLSLSPGERATLSCRASQSVSSSYLAWYQQKPGQAPRLLIYGASSRATGIPDRFSGSGSGTDFTLTISRLEPEDFAVYYCKFYPYPPSFTFGQGTKVEIK
notes: IgG
B11: L3.PY/L3.KY/H2.DY (antibody, V domains shown)
VH: EVQLLESGGGLVQPGGSLRLSCAASGFTFGSYAMTWVRQAPGKGLEWVSAIDYSGGNTFYADSVKGRFTISRDNSKNTLYLQMNSLRAEDTAVYYCARVSPIASGMDYWGQGTLVTVSS
VL: EIVLTQSPGTLSLSPGERATLSCRASQSVSSSYLAWYQQKPGQAPRLLIYGASSRATGIPDRFSGSGSGTDFTLTISRLEPEDFAVYYCKYYPYPPSFTFGQGTKVEIK
notes: IgG
B12: L3.PY/L3.KF/H2.YQ (antibody, V domains shown)
VH: EVQLLESGGGLVQPGGSLRLSCAASGFTFGSYAMTWVRQAPGKGLEWVSAISYQGGNTFYADSVKGRFTISRDNSKNTLYLQMNSLRAEDTAVYYCARVSPIASGMDYWGQGTLVTVSS
VL: EIVLTQSPGTLSLSPGERATLSCRASQSVSSSYLAWYQQKPGQAPRLLIYGASSRATGIPDRFSGSGSGTDFTLTISRLEPEDFAVYYCKFYPYPPSFTFGQGTKVEIK
notes: IgG
B13: L3.PY/L3.KF/H3.AE (antibody, V domains shown)
VH: EVQLLESGGGLVQPGGSLRLSCAASGFTFGSYAMTWVRQAPGKGLEWVSAISGSGGNTFYADSVKGRFTISRDNSKNTLYLQMNSLRAEDTAVYYCARVSPIAAEMDYWGQGTLVTVSS
VL: EIVLTQSPGTLSLSPGERATLSCRASQSVSSSYLAWYQQKPGQAPRLLIYGASSRATGIPDRFSGSGSGTDFTLTISRLEPEDFAVYYCKFYPYPPSFTFGQGTKVEIK
notes: IgG
B14: L3.PY/L3.KF/H2.LT (antibody, V domains shown)
VH: EVQLLESGGGLVQPGGSLRLSCAASGFTFGSYAMTWVRQAPGKGLEWVSAISLTGGNTFYADSVKGRFTISRDNSKNTLYLQMNSLRAEDTAVYYCARVSPIASGMDYWGQGTLVTVSS
VL: EIVLTQSPGTLSLSPGERATLSCRASQSVSSSYLAWYQQKPGQAPRLLIYGASSRATGIPDRFSGSGSGTDFTLTISRLEPEDFAVYYCKFYPYPPSFTFGQGTKVEIK
notes: IgG
B15: L3.PY/L3.KY/H2.HA (antibody, V domains shown)
VH: EVQLLESGGGLVQPGGSLRLSCAASGFTFGSYAMTWVRQAPGKGLEWVSAISHAGGNTFYADSVKGRFTISRDNSKNTLYLQMNSLRAEDTAVYYCARVSPIASGMDYWGQGTLVTVSS
VL: EIVLTQSPGTLSLSPGERATLSCRASQSVSSSYLAWYQQKPGQAPRLLIYGASSRATGIPDRFSGSGSGTDFTLTISRLEPEDFAVYYCKYYPYPPSFTFGQGTKVEIK
notes: IgG

Results on 15 molecules are retold here after patent publication US20160297884A1 (Pfizer, published 2016).

One may read the Kd as the constant that tells how readily two partners part at equilibrium. A lower Kd goes with higher affinity. As usually defined, the koff is a measure of how fast the partners let go of each other. Read a low koff as slow dissociation. One may read the kon as the rate constant with which the complex forms. The low end stands for slower complex formation, the high end for faster complex formation.

The assay has as its target T1, Human BCMA (human, UniProt Q02223 1-54, limits assumed).
T1 construct: Soluble analyte in SPR; construct not described; also called huBCMA; B-cell maturation antigen
T1 sequence (looked up): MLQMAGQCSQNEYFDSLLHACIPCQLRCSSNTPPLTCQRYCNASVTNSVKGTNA
Description: SPR, IgG immobilised, 37 C. The procedure:
All experiments were performed on a Bio-Rad Proteon XPR36 surface Plasmon resonance biosensor (Bio-Rad, Hercules, Calif.). […] The analysis temperature for the immobilization was 25° C. and the running buffer was HBS-T+(10 mM HEPES, 150 mM NaCl, 0.05% Tween-20, pH 7.4). Channels were activated in the analyte (horizontal) direction by injecting a mixture of 1 mM ECD and 0.25 mM NHS for 3 minutes at a flow rate of 30 μL/min. IgGs were immobilized on the activated spots by injecting them in the ligand (vertical) direction at 20 μg/mL in 10 mM Acetate pH 4.5 buffer for 1.5 minutes at […]. The activated surfaces were blocked by injecting 1M ethanolamine, pH 8.5 in the analyte direction for 3 minutes at 30 μL/min.
The analysis temperature for the BCMA binding analysis was 37° C. or 25° C. in a running buffer of HBS-T+, supplemented with 1 mg/mL BSA. A kinetic titration method was employed for the interaction analysis as described in Abdiche, et al. Human BCMA (huBCMA) or cynomolgus monkey BCMA (cyBCMA) analyte was injected in the analyte direction using a series of injections from low to high concentration. The concentrations used were 0.08 nM, 0.4 nM, 2 nM, 10 nM and 50 nM (a 5-membered series, with a 5-fold dilution factor and top concentration of 50 nM). The association time for a given analyte dilution was two minutes. Immediately after the 50 nM BCMA injection, dissociation was monitored for 2 hours.
The sensorgrams were double-referenced and fit to a 1:1 Langmuir with mass transport kinetic titration model in BIAevaluation Software version 4.1.1 (GE Lifesciences, Piscataway, N.J.).
Consider B1, for which the Kd worked out at 0.49 nM, the “T ½” value came out at 9.99 min, the dissociation rate constant (koff) was 0.00116 s⁻¹ and the kon is 2.37e+06 M⁻¹ s⁻¹.

For the molecule B2, the Kd is 0.64 nM, the “T ½” value is 4.89 min, the koff turned out to be 0.00236 s⁻¹ and the kon turned out to be 3.69e+06 M⁻¹ s⁻¹.

Turning to B3, the dissociation constant Kd stood at 0.52 nM, the “T ½” value was found to be 7.27 min, the koff is 0.00159 s⁻¹ and the on-rate constant (kon) worked out at 3.08e+06 M⁻¹ s⁻¹.

Consider B4, for which binding was characterised by a dissociation constant (Kd) of 0.6 nM, the “T ½” value stood at 9.26 min, the koff worked out at 0.00125 s⁻¹ and the kon turned out to be 2.07e+06 M⁻¹ s⁻¹.

With B5, the Kd was found to be 0.67 nM, the “T ½” value was determined as 6.35 min, the koff was found to be 0.00182 s⁻¹ and the kon was found to be 2.74e+06 M⁻¹ s⁻¹.

As to B6, the Kd is 0.59 nM, the “T ½” value turned out to be 5.43 min, the koff was determined as 0.00213 s⁻¹ and the kon came out at 3.58e+06 M⁻¹ s⁻¹.

On to B7, for which the Kd came out at 0.65 nM, the “T ½” value worked out at 5.09 min, the off-rate (koff) is 0.00227 s⁻¹ and the kon came to 3.48e+06 M⁻¹ s⁻¹.

As for B8, the Kd worked out at 0.36 nM, the “T ½” value turned out to be 8.61 min, the koff is 0.00134 s⁻¹ and the kon is 3.68e+06 M⁻¹ s⁻¹.

As to B9, the affinity, expressed as Kd, was 0.47 nM; the “T ½” value was 7.85 min; the koff came out at 0.00147 s⁻¹; the kon is 3.12e+06 M⁻¹ s⁻¹.

Take B10: the Kd turned out to be 0.58 nM, the “T ½” value turned out to be 7.12 min, the koff came to 0.00162 s⁻¹ and the kon came out at 2.82e+06 M⁻¹ s⁻¹.

On to B11, for which binding was put at a Kd of 0.2 nM, the “T ½” value came to 18 min, the koff turned out to be 0.000642 s⁻¹ and the kon was determined as 3.19e+06 M⁻¹ s⁻¹.

As to B12, the affinity, expressed as Kd, was 1.14 nM; the “T ½” value is 5.18 min; the koff is 0.00223 s⁻¹; the kon was 1.96e+06 M⁻¹ s⁻¹.

Consider B13, for which the affinity, expressed as Kd, was 0.51 nM; the “T ½” value was 7.44 min; the koff came to 0.00155 s⁻¹; the kon was 3.07e+06 M⁻¹ s⁻¹.

On to B14, for which binding was characterised by a dissociation constant (Kd) of 0.69 nM, the “T ½” value was determined as 6.05 min, the koff worked out at 0.00191 s⁻¹ and the kon turned out to be 2.75e+06 M⁻¹ s⁻¹.

As for B15, the Kd was determined as 0.49 nM, the “T ½” value amounted to 7.1 min, the off-rate constant (koff) is 0.00163 s⁻¹ and the association rate constant (kon) is 3.29e+06 M⁻¹ s⁻¹.
